Data: patent US20210324051A1 (published 2021)

B1: MR111 human monoclonal antibody (antibody, V domains shown)
V domain 1: QVQLQESGPGLVKPSETLSLTCTVSGDSINNYYWSWIRQPPGKGLEWIGYIYYSNTNYNPSLKSRVTISVDTSKNQFSLRLSSVTAADTAVYYCARSPLFWFGEFFSSPDHFDFWGQGTL
V domain 2: QSALTQPASVSGSPGQSITISCTGTSSDVGSYDLVSWYQQHPGKAPKLMLYEGTKRPSGVSNRFSGSKSGNTASLTISGLQAEDEADYYCCSYAGGSTLVFGGGTQVTVL
B2: MR144 (antibody, V domains shown)
V domain 1: QVQLQESGPGLVKPSETLSLTCTVSGDSISRYYWSWIRQPPGKGLEWIGYLYYSGSTDYNPSLKSRVTISVDTSKNQFSLNLTSVTAADTAVYYCARGSSRGIGVVSHWFDPWGQGT
V domain 2: SYVLTQPPSVSVAPGQTARITCGGSNMGYKSVQWYQQRPGQAPVLVVYDDTDRPSGIPERFSGSNSGATATLTISSVEAGDEADYYCQVWDSSSDHHVVFGGGTQVTVL
B3: MR72 human monoclonal antibody (antibody, V domains shown)
VH: QLQLQESGPGLVKPSETLSLTCTVSGDSINNTNYYWAWIRQPPGKGLEYIGSIYYSGSTYYNPSLKSRVTMSVDASKNQFSLRLSSVTAADTAVYYCATHPTLGAFVLLWFGANFDHWGQGTLVTVSS
VL: QAVVTQPPSVSGAPGQRVTISCTGSSSNIGANYDVHWYQQLPGTAPKLLMYSNTNRPSGVPDRFSGSKSGTSASLAITGLQAEDEADYYCQSYDNSLNSWVFGGGTQLTVL
B4: MR191 human monoclonal antibody (antibody, V domains shown)
VH: QLQLQESGPGLVKPSETLSLSCTVSGVSISDNSYYWGWIRQPPGKGLEWIGTISYSGNTYYNPSLKSRVSISGDTSKHQLSLKVSSVTAADTAVYYCARQRIVSGFVEWLSKFDYWGQGTLVTVSS
VL: QSVLTQPPSVSGAPGQRVTISCTGSSSNIGAGFDVHWYQQLPGTAPKLLIYDNNNRPSGVPDRFSGSKSGTSASLAITGLQAEDEADYYCQSYDTSLSGPVVFGGGTKLTVL
B5: MR232 (antibody, V domains shown)
VH: QLQLQESGPGLVKPSETLSLTCAVSGGSISSSGYCWGWIRQPPGKGLEWIASICSSGTTYFNSSLKSRVSISIDTSRPQFLLNLRSLTAADTAVYYCARQRMELHFLEWLFPFDSWGQGTLVTVSS
VL: DIVMTQSPATLSVSPGERATLSCRASQSVSSNLAWYQQKPGQAPRLLISGASTRATGIPARFSGSGSGTEFTLTISSLQSEDFAVYYCQQYINWPCSFGQGTKVDIK
B6: MR208 (antibody, V domains shown)
VH: QVQLQESGPGLVKPSETLSLTCSVSGDSVSSGDYYWSWLRQPPGKGLEWIGYIYYSGATNYNPSLKSRVTISLDTSKNQFSLKLTSVTAADTAVYYCARERAGFLEWLFFEDWGQGT
VL: DIQMTQSPSSLSASVGDRVTIFCRASQSIGTYLSWYQQKPGKAPKVLIYATSNLQSGVPSRFSGSGSGTEFTLTISSLQPEDFATYYCQQSRTFGQGTKVDMK
B7: MR209 (antibody)
chain 1: QLQLQESGPGLVKPSETLSLTCTVAGGPITSNNYYWGWIRQSPGKGLEWIGSVYYSGNTYYNPSIKTRVTMSVDTSKSQFSLKLNSVTAADTAVYYCARQFRLLQFVEWLHHFDSWGPGN
chain 2: SYVLTQPPSVSVAPGQTARIPCGGNDIANKRVHWYQQKPGQAPMLVVYDDGDRPSGIPERFSGSNSGNTATLTISRVEAGDEADYYCQVWENSSDLCVVFGGGTKLTVL
B8: MR65 (antibody, V domains shown)
VH: EVQLLESGGGLVQPGGSLRLSCAASGFTFSSYAMSWVRQAPGQGLEWVSGISATGGNTYYPDSVKGRFTISRDNSKNTLYLQMNSLRAEDTAVYYCARPLQFLTWFDPWGQGTLVTVSS
VL: EIVLTQSPATLSLSPGERATLSCRASQSVNNFLAWYQQKPGQPPRLLIYDATNRATGIPARFSGSGSGTDFTLTISSLEPEDFAVYHCQHRSNWPSITFGQGTRLEIK
B9: MR241 (antibody, V domains shown)
VH: QVQLQESGPGLVKPSETLSLTCTVSGASISGNFWSWIRQPPGKGLEYIGYMSDIGTTNYSPSLKSRVTISVDTSKNQFSLNLTSVTAADAAVYYCARLVAVPGFFYHYYMDVWGEGTLVTVSS
VL: DIVMTQSPSSVSASVGDRVTITCRASQGISGWLAWYQQKPGKAPKLLIYATSTLQSGVPSRFSGSESGTAFTLTISSLQPEDFATYYCQQANSFPLTFGGGTKVEIK
B10: MR229 (antibody)
chain 1: EVQLVESGGGLVKPGGSLRISCVTSGFTFGDYAMSWFRQAPGKGLEWVGFIRNKGYGGTIDYAASVKGRFTISRDDSKSIAYLQMNSLKTEDTAVYYCTGVRLHYDFWSGYDDDSFHIWGQGTM
chain 2: DGVMTQSPLSLPVTPGQPASISCRSTQSLVHGDGDTYLYWFQQRPGQSPRRLIYKVSNRDSGVPDRFSGSGSGTDFTLKISRVEAEDVGVYYCMQSTHWPPTFGQ
B11: MR82 (antibody, V domains shown)
VH: QVQLVQSGAEVKKPGASVKVSCKASGHTFTTYAIHWVRQAPGQGLEWMGWINPDNDNTEYSQKFQGRVTITRDTSASTAYMELSSLISEDTAVFYCASASYTFWSGYYSGLDYWGQGTLVTVSS
VL: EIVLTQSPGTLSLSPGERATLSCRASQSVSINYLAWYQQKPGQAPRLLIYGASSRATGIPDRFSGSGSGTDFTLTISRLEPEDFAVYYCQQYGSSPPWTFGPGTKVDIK

Legend:
Experiment in all cases: ELISA
[1] = target: Angola strain MARV GP ectodomain lacking residues 257-425 of the mucin-like domain (Marburg virus, Angola strain, UniProt Q1PD50 19-648)
[2] = target: EBOV Mayinga strain GP ectodomain lacking residues 314-462 of the mucin-like domain (Ebola virus, Mayinga strain, UniProt Q05320 33-650)
[3] = target: T1, Ravn strain cleaved MARV GP ectodomain (Marburg virus, Ravn strain, UniProt Q1PDC7 19-648)
T1 chain: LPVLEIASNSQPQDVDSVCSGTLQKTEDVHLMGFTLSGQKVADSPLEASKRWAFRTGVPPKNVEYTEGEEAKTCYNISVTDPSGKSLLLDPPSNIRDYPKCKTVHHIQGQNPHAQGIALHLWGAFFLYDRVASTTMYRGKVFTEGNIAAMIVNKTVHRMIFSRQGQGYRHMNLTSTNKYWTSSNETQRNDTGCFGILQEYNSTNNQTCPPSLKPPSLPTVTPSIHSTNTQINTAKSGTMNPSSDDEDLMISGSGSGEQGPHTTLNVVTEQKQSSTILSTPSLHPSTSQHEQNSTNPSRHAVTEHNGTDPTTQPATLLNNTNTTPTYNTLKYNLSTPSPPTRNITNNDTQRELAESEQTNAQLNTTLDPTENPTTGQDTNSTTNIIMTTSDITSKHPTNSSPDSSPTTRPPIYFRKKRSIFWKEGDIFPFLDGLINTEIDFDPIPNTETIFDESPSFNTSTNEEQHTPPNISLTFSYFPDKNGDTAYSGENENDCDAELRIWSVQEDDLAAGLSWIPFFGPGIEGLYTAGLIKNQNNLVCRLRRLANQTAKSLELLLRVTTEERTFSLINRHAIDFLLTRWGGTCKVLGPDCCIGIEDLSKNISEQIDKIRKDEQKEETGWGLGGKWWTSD

[4] = target: T2, EBOV Mayinga strain cleaved GP ectodomain (Ebola virus, Mayinga strain, UniProt Q05320 33-650)
T2 chain: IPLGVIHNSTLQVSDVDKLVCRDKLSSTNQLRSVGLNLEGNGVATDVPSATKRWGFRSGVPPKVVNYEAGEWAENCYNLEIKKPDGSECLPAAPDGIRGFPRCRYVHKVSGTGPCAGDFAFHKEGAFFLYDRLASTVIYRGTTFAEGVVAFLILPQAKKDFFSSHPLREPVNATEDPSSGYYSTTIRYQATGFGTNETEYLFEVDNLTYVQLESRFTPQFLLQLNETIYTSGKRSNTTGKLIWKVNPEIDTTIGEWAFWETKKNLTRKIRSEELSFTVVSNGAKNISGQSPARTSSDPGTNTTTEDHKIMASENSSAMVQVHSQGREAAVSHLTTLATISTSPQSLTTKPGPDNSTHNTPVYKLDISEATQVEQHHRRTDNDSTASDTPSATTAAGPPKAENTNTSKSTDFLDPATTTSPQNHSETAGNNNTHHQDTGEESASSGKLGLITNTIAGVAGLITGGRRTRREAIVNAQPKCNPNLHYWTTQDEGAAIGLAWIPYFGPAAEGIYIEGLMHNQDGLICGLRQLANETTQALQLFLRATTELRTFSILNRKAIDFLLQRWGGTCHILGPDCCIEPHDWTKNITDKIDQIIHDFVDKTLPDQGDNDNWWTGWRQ

[5] = target: T3, EBOV Mayinga strain GP ectodomain containing the glycan cap and mucin-like domain (Ebola virus, Mayinga strain, UniProt Q05320 33-650)
T3 chain: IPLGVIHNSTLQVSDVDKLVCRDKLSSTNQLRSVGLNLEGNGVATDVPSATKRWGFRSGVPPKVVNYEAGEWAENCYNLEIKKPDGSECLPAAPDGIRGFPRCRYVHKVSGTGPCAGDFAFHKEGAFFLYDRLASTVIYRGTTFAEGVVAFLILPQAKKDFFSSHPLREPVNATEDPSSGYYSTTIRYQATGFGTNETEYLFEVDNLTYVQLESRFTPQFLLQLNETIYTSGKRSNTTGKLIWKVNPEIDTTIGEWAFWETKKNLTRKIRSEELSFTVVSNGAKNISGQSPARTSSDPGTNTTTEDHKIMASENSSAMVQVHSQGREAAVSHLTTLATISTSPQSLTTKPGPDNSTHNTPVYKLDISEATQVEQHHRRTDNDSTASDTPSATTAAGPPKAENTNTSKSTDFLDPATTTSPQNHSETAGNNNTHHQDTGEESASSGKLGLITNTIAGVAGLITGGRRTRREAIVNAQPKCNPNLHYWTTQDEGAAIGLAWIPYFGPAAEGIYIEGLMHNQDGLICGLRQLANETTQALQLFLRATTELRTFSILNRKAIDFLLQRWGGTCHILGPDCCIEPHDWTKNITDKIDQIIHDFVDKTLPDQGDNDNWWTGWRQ

[6] = target: T4, Angola strain MARV GP ectodomain containing the mucin-like domain (Marburg virus, Angola strain, UniProt Q1PD50 19-648)
T4 chain: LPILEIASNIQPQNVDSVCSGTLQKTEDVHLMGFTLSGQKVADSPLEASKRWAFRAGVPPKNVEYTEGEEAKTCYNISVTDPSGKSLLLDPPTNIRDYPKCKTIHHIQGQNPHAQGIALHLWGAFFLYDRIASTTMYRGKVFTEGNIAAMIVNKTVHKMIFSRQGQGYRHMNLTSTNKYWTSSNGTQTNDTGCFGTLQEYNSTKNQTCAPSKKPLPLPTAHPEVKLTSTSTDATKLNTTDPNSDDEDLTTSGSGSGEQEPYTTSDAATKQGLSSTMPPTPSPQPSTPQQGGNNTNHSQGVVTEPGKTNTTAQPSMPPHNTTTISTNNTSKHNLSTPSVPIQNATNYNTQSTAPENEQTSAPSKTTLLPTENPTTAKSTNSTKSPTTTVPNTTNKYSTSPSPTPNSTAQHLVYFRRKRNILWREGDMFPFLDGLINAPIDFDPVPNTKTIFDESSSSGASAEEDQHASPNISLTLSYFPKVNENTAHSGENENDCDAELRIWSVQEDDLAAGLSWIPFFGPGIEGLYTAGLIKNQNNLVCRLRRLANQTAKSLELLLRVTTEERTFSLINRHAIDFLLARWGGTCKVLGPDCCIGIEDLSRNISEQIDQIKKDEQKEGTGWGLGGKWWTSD

Binder | EC50 [1] [µg/mL] | EC50 [2] [µg/mL] | EC50 [3] [µg/mL] | EC50 [4] [µg/mL] | EC50 [5] [µg/mL] | EC50 [6] [µg/mL]
B1 | 4.3 | > 1000 | 1.5 | 21.5 | > 1000 | 2.5
B2 | 8 | > 1000 | 3.3 | > 1000 | > 1000 | 8.1
B3 | 4.7 | 2.1 | 0.8 | < 0.1 | 6.1 | 3
B4 | 5.1 | > 1000 | 1.4 | < 0.1 | > 1000 | 2.5
B5 | 1.3 | > 1000 | 0.5 | > 1000 | > 1000 | 2
B6 | 7.3 | > 1000 | 2.8 | > 1000 | > 1000 | 5.6
B7 | 5.4 | > 1000 | 2 | > 1000 | > 1000 | 4
B8 | 7.5 | > 1000 | 5 | > 1000 | > 1000 | 8.3
B9 | 4 | > 1000 | 1.2 | > 1000 | > 1000 | 2.2
B10 | 2.9 | > 1000 | 1.2 | > 1000 | > 1000 | 1.8
B11 | 1.5 | > 1000 | 0.5 | > 1000 | > 1000 | 1
